Literature values, collected in patent publication US20200306346A1 (ADOCIA, priority 2017, published 2020).

Columns and labels:
[1] = system: mammalian cells in culture
[2] = system: patients; conditions: in vivo

| Substance | cytotoxicity [1] | inflammatory responses at the first dose [2] |
| --- | --- | --- |
| fibrillated human glucagon: "potentially dangerous nature of these fibrils: fibrillated human glucagon being cytotoxic in mammalian cells in culture" | cytotoxic | – |
| pegnivacogin | – | 3 out of 640 |
